Results: US9708383 (Novo Nordisk, dated 2017)
*1 amine or outer side, *2 acyl side, *3 side chain or, on linkers, in order; H or OH if unused. Where no end group is shown, it is not given here. Side-chain parts run from the residue outwards. [ ]: non-standard residue; d: D form. The star is where a group is joined. 8‑(4-carboxyphenoxy)octanoyl = O=C(O)c1ccc(OCCCCCCCC(=O)*)cc1; Decanoyl(10-(4-HOOC-PhO)) = O=C(O)c1ccc(OCCCCCCCCCC(=O)*)cc1; C18 diacid = O=C(O)CCCCCCCCCCCCCCCCC(=O)*; γGlu = O=C(O)[C@H](CCC(=O)[*:2])N[*:1]; Desaminohistidyl = O=C(CCc1c[nH]cn1)*; C12 diacid = O=C(O)CCCCCCCCCCC(=O)*; 13‑carboxytridecanoyl = C14 diacid; AEEA = NCCOCCOCC(=O)O; Aib = CC(C)(N)C(=O)O

Key:
[1] = target: T1, human GLP-1 receptor (human, UniProt P43220 24-463); assay: SPA, 2.0% vs 0.005% HSA
T1 construct: whole, on cells; Used as purified membranes of the transfected hamster cells, not whole cells; also called hGLP-1

[2] = target: T1, human GLP-1 receptor; assay: SPA, displacement of 125I-GLP-1(7-36)NH2, 0.005% HSA

Binder | ratio IC50 high HSA/IC50 low HSA [1] | IC50 [2]
H[Aib]EGTFTSDVSK([γGlu-AEEA-AEEA-13‑carboxytridecanoyl])YLEEQAVREFIAK([γGlu-AEEA-AEEA-13‑carboxytridecanoyl])LVG [GLP-1 derivative of Example 36: [Aib8,Lys18,Glu22,Val25,Arg26,Lys31,Gly34]-GLP-1-(7-34)-peptide] | > 1 | < 1000 nM
H[Aib]EGTFTSDVSK([AEEA-AEEA-γGlu-2‑phenylcyclopropanecarbonyl])YLEEQAAK([AEEA-AEEA-γGlu-2‑phenylcyclopropanecarbonyl])EFIAWLVQGRG [GLP-1 derivative of Example 79: [Aib8,Lys18,Glu22,Gln34]-GLP-1-(7-37)-peptide] | > 1 | < 1000 nM
H[Aib]EGTFTSDVSK([AEEA-AEEA-γGlu-13‑carboxytridecanoyl])YLEEQAVRLFIAWLVK([AEEA-AEEA-γGlu-13‑carboxytridecanoyl]) [GLP-1 derivative of Example 63: [Aib8,Lys18,Glu22,Val25,Arg26,Leu27]-GLP-1-(7-34)-peptide] | > 1 | < 1000 nM
H[Aib]EGTFTSDVSK([AEEA-AEEA-γGlu-13‑carboxytridecanoyl])YLEEQAVREFIAK([AEEA-AEEA-γGlu-13‑carboxytridecanoyl])LV-NH2 (Second site printed without its number (N^ε-)) [GLP-1 derivative of Example 37: [Aib8,Lys18,Glu22,Val25,Arg26,Lys31]-GLP-1-(7-33)-peptide amide] | > 1 | < 1000 nM
[Desaminohistidyl][Aib]EGTFTSDVSK([AEEA-AEEA-γGlu-13‑carboxytridecanoyl])YLEEQAVREFIAK([AEEA-AEEA-γGlu-13‑carboxytridecanoyl])LVG [GLP-1 derivative of Example 21: [Imp7,Aib8,Lys18,Glu22,Val25,Arg26,Lys31,Gly34]-GLP-1-(7-34)-peptide] | > 1 | < 1000 nM
H[Aib]EGTFTSDVSK([AEEA-AEEA-γGlu-C12 diacid])YLEEQAAK([AEEA-AEEA-γGlu-C12 diacid])EFIAWLVQGRG [GLP-1 derivative of Example 39: [Aib8,Lys18,Glu22,Gln34]-GLP-1-(7-37)-peptide] | > 1 | < 1000 nM
H[Aib]EGTFTSDVSK([AEEA-AEEA-13‑carboxytridecanoyl])YLEEQAAK([AEEA-AEEA-13‑carboxytridecanoyl])EFIAWLVQGRG [GLP-1 derivative of Example 84: [Aib8,Lys18,Glu22,Gln34]-GLP-1-(7-37)-peptide] | > 1 | < 1000 nM
[Desaminohistidyl]AEGTFTSDVSK([AEEA-AEEA-13‑carboxytridecanoyl])YLEEQAARK([AEEA-AEEA-13‑carboxytridecanoyl])FIAHLVG [GLP-1 derivative of Example 31: [Imp7,Lys18,Glu22,Arg26,Lys27,His31,Gly34]-GLP-1-(7-34)-peptide] | > 1 | < 1000 nM
[Desaminohistidyl][Aib]EGTFTSDVSK([AEEA-AEEA-γGlu-C12 diacid])YLEEQAVREFIAK([AEEA-AEEA-γGlu-C12 diacid])LVG [GLP-1 derivative of Example 22: [Imp7,Aib8,Lys18,Glu22,Val25,Arg26,Lys31,Gly34]-GLP-1-(7-34)-peptide] | > 1 | < 1000 nM
H[Aib]EGTFTSDVSK([AEEA-AEEA-γGlu-13‑carboxytridecanoyl])YLEERAVREFIAK([AEEA-AEEA-γGlu-13‑carboxytridecanoyl])LVG | > 1 | < 1000 nM
H[Aib]EGTFTSDVSK([AEEA-AEEA-γGlu-C12 diacid])YLEEQAVRK([AEEA-AEEA-γGlu-C12 diacid])FIAHLVG | > 1 | < 1000 nM
H[Aib]EGTFTSDVSK([AEEA-AEEA-γGlu-C12 diacid])YLEEQAVHEFIAK([AEEA-AEEA-γGlu-C12 diacid])LVG [GLP-1 derivative of Example 27: [Aib8,Lys18,Glu22,Val25,His26,Lys31,Gly34]-GLP-1-(7-34)-peptide] | > 1 | < 1000 nM
H[Aib]EGTFTSDVSK([AEEA-AEEA-γGlu-13‑carboxytridecanoyl])YLEEQAVRHFIAK([AEEA-AEEA-γGlu-13‑carboxytridecanoyl])LVG | > 1 | < 1000 nM
H[Aib]EGTFTSDVSK([AEEA-AEEA-γGlu-13‑carboxytridecanoyl])YLEEQAVRK([AEEA-AEEA-γGlu-13‑carboxytridecanoyl])FIAHLVG | > 1 | < 1000 nM
H[Aib]EGTFTSDVSK([AEEA-AEEA-Decanoyl(10-(4-HOOC-PhO))])YLEEQAAK([AEEA-AEEA-Decanoyl(10-(4-HOOC-PhO))])EFIAWLVQGRG [GLP-1 derivative of Example 85: [Aib8,Lys18,Glu22,Lys26,Gln34]-GLP-1-(7-37)-peptide] | > 1 | < 1000 nM
H[Aib]EGTFTSDVSK([AEEA-AEEA-AEEA-AEEA-Decanoyl(10-(4-HOOC-PhO))])YLEEQAAK([AEEA-AEEA-AEEA-AEEA-Decanoyl(10-(4-HOOC-PhO))])EFIAWLVQGRG [GLP-1 derivative of Example 71: [Aib8,Lys18,Glu22,Gln34]-GLP-1-(7-37)-peptide] | > 1 | < 1000 nM
H[Aib]EGTFTSDVSK([γGlu-AEEA-AEEA-Decanoyl(10-(4-HOOC-PhO))])YLEEQAAK([γGlu-AEEA-AEEA-Decanoyl(10-(4-HOOC-PhO))])EFIAWLVQGRG [GLP-1 derivative of Example 82: [Aib8,Lys18,Glu22,Gln34]-GLP-1-(7-37)-peptide] | > 1 | < 1000 nM
[Desaminohistidyl]AEGTFTSDVSK([AEEA-AEEA-γGlu-Decanoyl(10-(4-HOOC-PhO))])YLEEQAARK([AEEA-AEEA-γGlu-Decanoyl(10-(4-HOOC-PhO))])FIAHLVG [GLP-1 derivative of Example 33: [Imp7,Lys18,Glu22,Arg26,Lys27,His31,Gly34]-GLP-1-(7-34)-peptide] | > 1 | < 1000 nM
H[Aib]EGTFTSDVSK([AEEA-γGlu-13‑carboxytridecanoyl])YLEEQAVREFIAK([AEEA-γGlu-13‑carboxytridecanoyl])LVG [GLP-1 derivative of Example 20: [Aib8,Lys18,Glu22,Val25,Arg26,Lys31,Gly34]-GLP-1-(7-34)-peptide] | > 1 | < 1000 nM
H[Aib]EGTFTSDVSK([AEEA-AEEA-γGlu-C18 diacid])YLEEQAAK([AEEA-AEEA-γGlu-C18 diacid])EFIAWLVQGRG [GLP-1 derivative of Example 23: [Aib8,Lys18,Glu22,Gln34]-GLP-1-(7-37)-peptide] | > 1 | < 1000 nM
H[Aib]EGTFTSDVSK([AEEA-γGlu-AEEA-13‑carboxytridecanoyl])YLEEQAAK([AEEA-γGlu-AEEA-13‑carboxytridecanoyl])EFIAWLVQGRG [GLP-1 derivative of Example 86: [Aib8,Lys18,Glu22,Gln34]-GLP-1-(7-37)-peptide] | > 1 | < 1000 nM
H[Aib]EGTFTSDVSK([AEEA-AEEA-AEEA-AEEA-γGlu-Decanoyl(10-(4-HOOC-PhO))])YLEEQAAK([AEEA-AEEA-AEEA-AEEA-γGlu-Decanoyl(10-(4-HOOC-PhO))])EFIAWLVQGRG [GLP-1 derivative of Example 69: [Aib8,Lys18,Glu22,Gln34]-GLP-1-(7-37)-peptide] | > 1 | < 1000 nM
[Desaminohistidyl]AEGTFTSDVSK([γGlu-AEEA-AEEA-13‑carboxytridecanoyl])YLEEQAARK([γGlu-AEEA-AEEA-13‑carboxytridecanoyl])FIAHLVG [GLP-1 derivative of Example 32: [Imp7,Lys18,Glu22,Arg26,Lys27,His31,Gly34]-GLP-1-(7-34)-peptide] | > 1 | < 1000 nM
H[Aib]EGTFTSDVSK([AEEA-AEEA-γGlu-13‑carboxytridecanoyl])YLEEQAAK([AEEA-AEEA-γGlu-13‑carboxytridecanoyl])EFIAWLVQGRG [GLP-1 derivative of Example 80: [Aib8,Lys18,Glu22,Gln34]-GLP-1-(7-37)-peptide] | > 1 | < 1000 nM
H[Aib]EGTFTSDVSK([AEEA-AEEA-γGlu-8‑(4-carboxyphenoxy)octanoyl])YLEEQAAK([AEEA-AEEA-γGlu-8‑(4-carboxyphenoxy)octanoyl])EFIAWLVQGRG [GLP-1 derivative of Example 87: [Aib8,Lys18,Glu22,Gln34]-GLP-1-(7-37)-peptide] | > 1 | < 1000 nM
H[Aib]EGTFTSDVSK([γGlu-AEEA-AEEA-13‑carboxytridecanoyl])YLEEQAAK([γGlu-AEEA-AEEA-13‑carboxytridecanoyl])EFIAWLVQGRG [GLP-1 derivative of Example 65: [Aib8,Lys18,Glu22,Gln34]-GLP-1-(7-37)-peptide] | > 1 | < 1000 nM
H[Aib]EGTFTSDVSK([AEEA-AEEA-γGlu-C12 diacid])YLEEQAVREFIAK([AEEA-AEEA-γGlu-C12 diacid])LVG [GLP-1 derivative of Example 8: [Aib8,Lys18,Glu22,Val25,Arg26,Lys31,Gly34]-GLP-1-(7-34)-peptide] | > 1 | < 1000 nM
H[Aib]EGTFTSDVSK([AEEA-AEEA-γGlu-Decanoyl(10-(4-HOOC-PhO))])YLEEQAVREFIAK([AEEA-AEEA-γGlu-Decanoyl(10-(4-HOOC-PhO))])LVG [GLP-1 derivative of Example 19: [Aib8,Lys18,Glu22,Val25,Arg26,Lys31,Gly34]-GLP-1-(7-34)-peptide] | > 1 | < 1000 nM
